# Assay results taken from the array DNA melting data of Ke et al..
# Test: melting temperature; melt of duplexes
# Conditions: sodium 0.0675 M; strand 1 µM
row,Substance,Tm [°C]
1,CGACGTGCTCAATGTGCTG+CAGCACATAAAGCACGTCG (((((((((..((((((((+))))))))..))))))))),52.1
2,CGACGTGCGATATGTGCTG+CAGCACATGATGCACGTCG ((((((((...((((((((+))))))))...)))))))),53.8
3,CGACGTGCTGGATGTGCTG+CAGCACATGTTGCACGTCG ((((((((...((((((((+))))))))...)))))))),51.4
4,CGACGTGCTGCATGTGCTG+CAGCACATCGCGCACGTCG ((((((((...((((((((+))))))))...)))))))),52.6
5,CGACGTGCCATATGTGCTG+CAGCACATTTTGCACGTCG ((((((((.(.((((((((+)))))))).).)))))))),49.6
6,CGACGTGCACTATGTGCTG+CAGCACATTCAGCACGTCG ((((((((...((((((((+))))))))...)))))))),43.4
7,CGACGTGCCAAATGTGCTG+CAGCACATCCGGCACGTCG (((((((((..((((((((+))))))))..))))))))),53.3
8,CGACGTGCGCGATGTGCTG+CAGCACATACAGCACGTCG ((((((((...((((((((+))))))))...)))))))),51.7
9,CGACGTGCCTTATGTGCTG+CAGCACATCTAGCACGTCG ((((((((...((((((((+))))))))...)))))))),48.1
10,CGACGTGCCGTATGTGCTG+CAGCACATATAGCACGTCG ((((((((..(((((((((+)))))))))..)))))))),52.1
11,CGACGTGCGGCATGTGCTG+CAGCACATAGAGCACGTCG ((((((((...((((((((+))))))))...)))))))),56.4
12,CGACGTGCAGCATGTGCTG+CAGCACATTCGGCACGTCG ((((((((.(.((((((((+)))))))).).)))))))),49.7
13,CGACGTGCTGTATGTGCTG+CAGCACATGCGGCACGTCG ((((((((.(.((((((((+)))))))).).)))))))),55.7
14,CGACGTGCGTCATGTGCTG+CAGCACATTCAGCACGTCG ((((((((...((((((((+))))))))...)))))))),51.3
15,CGACGTGCTAGATGTGCTG+CAGCACATAAGGCACGTCG ((((((((...((((((((+))))))))...)))))))),51.4
16,CGACGTGCCAGATGTGCTG+CAGCACATGGGGCACGTCG (((((((((..((((((((+))))))))..))))))))),56.3
17,CGACGTGCTTCATGTGCTG+CAGCACATCTAGCACGTCG (((((((((..((((((((+))))))))..))))))))),50.3
18,CGACGTGCGATATGTGCTG+CAGCACATTACGCACGTCG (((((((((..((((((((+))))))))..))))))))),54.7
19,CGACGTGCTGAATGTGCTG+CAGCACATGCTGCACGTCG ((((((((.(.((((((((+)))))))).).)))))))),53.5
20,CGACGTGCTCTATGTGCTG+CAGCACATGAAGCACGTCG (((((((((..((((((((+))))))))..))))))))),53
21,CGACGTGCCCCATGTGCTG+CAGCACATTTTGCACGTCG ((((((((...((((((((+))))))))...)))))))),46.6
22,CGACGTGCGAGATGTGCTG+CAGCACATGACGCACGTCG (((((((((..((((((((+))))))))..))))))))),53.2
23,CGACGTGCTATATGTGCTG+CAGCACATACGGCACGTCG ((((((((..(((((((((+)))))))))..)))))))),50.7
24,CGACGTGCGAGATGTGCTG+CAGCACATTGGGCACGTCG ((((((((...((((((((+))))))))...)))))))),51.9
25,CGACGTGCCCAATGTGCTG+CAGCACATCGCGCACGTCG ((((((((.(.((((((((+)))))))).).)))))))),48.7
26,CGACGTGCCTGATGTGCTG+CAGCACATTAAGCACGTCG ((((((((.(.((((((((+)))))))).).)))))))),50.8

row,Substance,Tm [°C]
1,CGACGTGCCTAATGTGCTG+CAGCACATGGGGCACGTCG (((((((((..((((((((+))))))))..))))))))),56
2,CGACGTGCGAGATGTGCTG+CAGCACATGATGCACGTCG ((((((((...((((((((+))))))))...)))))))),53.2
3,CGACGTGCACCATGTGCTG+CAGCACATTGGGCACGTCG ((((((((.(.((((((((+)))))))).).)))))))),52.5
4,CGACGTGCAACATGTGCTG+CAGCACATACTGCACGTCG (((((((((..((((((((+))))))))..))))))))),49.8
5,CGACGTGCTTTATGTGCTG+CAGCACATTACGCACGTCG ((((((((.(.((((((((+)))))))).).)))))))),48.7
6,CGACGTGCTCGATGTGCTG+CAGCACATTCGGCACGTCG ((((((((...((((((((+))))))))...)))))))),52.3
7,CGACGTGCCCTATGTGCTG+CAGCACATATGGCACGTCG (((((((((.(((((((((+))))))))).))))))))),55.8
8,CGACGTGCGATATGTGCTG+CAGCACATCGCGCACGTCG (((((((((..((((((((+))))))))..))))))))),53.6
9,CGACGTGCGCGATGTGCTG+CAGCACATGTCGCACGTCG (((((((((..((((((((+))))))))..))))))))),55.5
10,CGACGTGCGAGATGTGCTG+CAGCACATAATGCACGTCG ((((((((...((((((((+))))))))...)))))))),52
11,CGACGTGCAGCATGTGCTG+CAGCACATGCCGCACGTCG ((((((((.((((((((((+)))))))))).)))))))),59.1
12,CGACGTGCCACATGTGCTG+CAGCACATTAGGCACGTCG (((((((((..((((((((+))))))))..))))))))),54.2
13,CGACGTGCCATATGTGCTG+CAGCACATTCTGCACGTCG ((((((((...((((((((+))))))))...)))))))),48.8
14,CGACGTGCAACATGTGCTG+CAGCACATAGAGCACGTCG ((((((((...((((((((+))))))))...)))))))),48.9
15,CGACGTGCTAGATGTGCTG+CAGCACATTCAGCACGTCG (((((((((..((((((((+))))))))..))))))))),52.8
16,CGACGTGCTGCATGTGCTG+CAGCACATGCTGCACGTCG ((((((((.((((((((((+)))))))))).)))))))),61.2
17,CGACGTGCTTTATGTGCTG+CAGCACATTTTGCACGTCG ((((((((...((((((((+))))))))...)))))))),49.5
18,CGACGTGCGCAATGTGCTG+CAGCACATCGGGCACGTCG ((((((((.(.((((((((+)))))))).).)))))))),52.7
19,CGACGTGCAGCATGTGCTG+CAGCACATCCGGCACGTCG ((((((((.(.((((((((+)))))))).).)))))))),49
20,CGACGTGCACCATGTGCTG+CAGCACATAAAGCACGTCG ((((((((...((((((((+))))))))...)))))))),45
21,CGACGTGCGTAATGTGCTG+CAGCACATGGCGCACGTCG (((((((((..((((((((+))))))))..))))))))),57.2
22,CGACGTGCAATATGTGCTG+CAGCACATCGAGCACGTCG ((((((((...((((((((+))))))))...)))))))),48.2
23,CGACGTGCCCTATGTGCTG+CAGCACATGATGCACGTCG ((((((((...((((((((+))))))))...)))))))),48.6
24,CGACGTGCGGTATGTGCTG+CAGCACATAAAGCACGTCG ((((((((..(((((((((+)))))))))..)))))))),56.9
25,CGACGTGCTACATGTGCTG+CAGCACATGAAGCACGTCG (((((((((.(((((((((+))))))))).))))))))),58.3
26,CGACGTGCCATATGTGCTG+CAGCACATCCGGCACGTCG (((((((((..((((((((+))))))))..))))))))),52.8
